# Source: US20240287172A1 (SCIRHOM, published 2024)
# T1: hiR2-FL-I566A-T7 (human, UniProt Q6PJF5 1-856)
# T1 sequence: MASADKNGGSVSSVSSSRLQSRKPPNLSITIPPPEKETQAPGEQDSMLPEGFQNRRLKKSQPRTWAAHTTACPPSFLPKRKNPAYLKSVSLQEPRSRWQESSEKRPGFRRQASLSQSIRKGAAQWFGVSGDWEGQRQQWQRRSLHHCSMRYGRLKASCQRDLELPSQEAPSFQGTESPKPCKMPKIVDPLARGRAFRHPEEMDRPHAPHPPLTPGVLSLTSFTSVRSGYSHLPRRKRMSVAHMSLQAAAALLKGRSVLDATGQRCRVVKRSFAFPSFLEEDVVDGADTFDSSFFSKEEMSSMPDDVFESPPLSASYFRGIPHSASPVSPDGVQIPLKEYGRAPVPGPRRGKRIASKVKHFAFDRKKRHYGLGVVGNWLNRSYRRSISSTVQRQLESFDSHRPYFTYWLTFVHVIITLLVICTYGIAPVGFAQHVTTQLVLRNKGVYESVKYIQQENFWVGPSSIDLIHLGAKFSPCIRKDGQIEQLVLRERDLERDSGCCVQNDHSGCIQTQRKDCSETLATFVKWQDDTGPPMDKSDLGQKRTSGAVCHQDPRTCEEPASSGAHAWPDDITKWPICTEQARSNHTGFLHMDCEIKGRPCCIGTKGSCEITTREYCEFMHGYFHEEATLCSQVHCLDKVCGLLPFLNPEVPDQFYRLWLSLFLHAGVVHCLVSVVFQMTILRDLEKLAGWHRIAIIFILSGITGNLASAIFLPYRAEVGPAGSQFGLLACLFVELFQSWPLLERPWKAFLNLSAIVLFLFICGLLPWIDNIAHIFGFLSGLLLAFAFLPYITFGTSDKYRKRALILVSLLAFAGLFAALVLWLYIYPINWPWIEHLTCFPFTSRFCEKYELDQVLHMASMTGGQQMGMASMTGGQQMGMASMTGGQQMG
# T2: hiR2-FL-Q510A-T7 (human, UniProt Q6PJF5 1-856)
# T2 construct: reduced surface expression reported
# T2 sequence: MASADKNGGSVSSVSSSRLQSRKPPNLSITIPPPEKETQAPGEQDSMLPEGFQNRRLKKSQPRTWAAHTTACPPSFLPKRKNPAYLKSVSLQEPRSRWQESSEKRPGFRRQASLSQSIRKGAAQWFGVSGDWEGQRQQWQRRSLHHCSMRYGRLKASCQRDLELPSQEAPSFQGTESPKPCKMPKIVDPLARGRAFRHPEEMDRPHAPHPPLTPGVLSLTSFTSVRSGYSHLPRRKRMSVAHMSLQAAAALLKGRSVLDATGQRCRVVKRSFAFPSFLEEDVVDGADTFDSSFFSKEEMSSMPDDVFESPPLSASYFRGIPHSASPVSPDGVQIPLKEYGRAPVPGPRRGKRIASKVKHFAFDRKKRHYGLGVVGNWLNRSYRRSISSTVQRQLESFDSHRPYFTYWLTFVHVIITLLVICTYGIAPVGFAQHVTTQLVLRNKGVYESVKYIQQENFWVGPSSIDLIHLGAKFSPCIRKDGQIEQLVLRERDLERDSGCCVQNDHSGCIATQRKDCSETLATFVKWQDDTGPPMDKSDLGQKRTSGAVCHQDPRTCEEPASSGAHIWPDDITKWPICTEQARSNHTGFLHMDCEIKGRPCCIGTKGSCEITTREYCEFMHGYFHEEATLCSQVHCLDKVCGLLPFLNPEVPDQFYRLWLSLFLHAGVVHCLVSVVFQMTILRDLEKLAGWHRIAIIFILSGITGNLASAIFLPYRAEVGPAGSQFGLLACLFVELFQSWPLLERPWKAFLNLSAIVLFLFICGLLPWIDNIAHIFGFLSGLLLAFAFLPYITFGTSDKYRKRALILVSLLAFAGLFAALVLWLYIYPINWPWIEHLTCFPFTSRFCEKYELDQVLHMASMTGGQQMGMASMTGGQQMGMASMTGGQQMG
# How the values were obtained:
# [1] = biological target: T1, hiR2-FL-I566A-T7; experiment: FACS on MEF-DKO cells expressing the variant, 3 µg/ml antibody
# In short: (§1)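 Primary stain: antibody 3 μg/ml, 1 h on ice; controls buffer alone. Secondary: PE anti-mouse IgG F(ab′)2 1:100, 1 h on ice, light-protected. Washes at 4° C; read by flow cytometry.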
# [2] = biological target: T2, hiR2-FL-Q510A-T7; experiment: as above
# In short: as §1
binder,measurement,setting,value
"antibody 34 (antibody, V domains shown, mouse IgG, kappa light chain; also called clone #34; purified antibody 34) VH: QVTLKESGPGILQPSQTLSLTCSFSGFSLSTFSLGVGWIRQSSGKGLEWLAHIWWDDEKYYNPALKSRLTISKDTSKNQVFLKIANVDAADTATYYCARAYYSKSYYALDYWGQGTSVTVSS VL: DIQMTQSPSSLSASLGERVSLTCRASQEISGYLSWLQQKPDGTIKRLIYAASTLDSGVPKRFSGSRSGSDYSLAISSLESEDFADYYCLQYANFPFTFGSGTKLEIK",loss of binding vs wild type,[1],≥ 30%
"antibody 50 (antibody, V domains shown, mouse IgG, kappa light chain; also called clone #50; purified antibody 50) VH: QVQLQQSGAELVRPGASVKVSCKASGYAFSNYLIEWVKQRPGQGLEWIGVINPGSGFTKYNEKFKGKATLTADKSSSTAYMQLSSLTSEDSAVYFCARGLYRAMDYWGQGTSVTVSS VL: DIQMTQSPASQSASLGESVTITCLASQTIGTWLAWYQQKPGKSPQLLIYAAASLADGVPSRFSGGGSGTKFSFKISSLQAEDFVNYYCQQIYSTPYTFGGGTKLEIK",loss of binding vs wild type,[2],≥ 30%
